Measured values from patent publication US20240059765A1 (ANNEXON, published 2024).

Molecular target: human C1q (human, UniProt P02745 23-245; P02746 28-253; P02747 29-245)
Test: cell-based or functional assay

Chain of human C1q (P02745 23-245 limits assumed, chain 1 of 3): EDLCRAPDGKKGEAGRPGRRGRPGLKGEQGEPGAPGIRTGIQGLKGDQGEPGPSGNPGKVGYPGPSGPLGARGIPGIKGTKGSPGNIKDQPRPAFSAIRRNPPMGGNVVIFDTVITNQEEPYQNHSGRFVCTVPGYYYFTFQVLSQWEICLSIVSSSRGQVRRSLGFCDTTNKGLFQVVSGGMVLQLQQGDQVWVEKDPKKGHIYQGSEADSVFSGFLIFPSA
Chain of human C1q (P02746 28-253 limits assumed, chain 2 of 3): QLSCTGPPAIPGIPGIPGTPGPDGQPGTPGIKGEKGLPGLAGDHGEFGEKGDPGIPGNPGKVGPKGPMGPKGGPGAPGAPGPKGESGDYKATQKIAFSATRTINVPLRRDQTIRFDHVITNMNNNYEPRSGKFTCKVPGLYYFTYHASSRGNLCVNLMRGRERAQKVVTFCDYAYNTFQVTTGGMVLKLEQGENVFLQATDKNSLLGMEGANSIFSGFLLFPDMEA
Chain of human C1q (P02747 29-245 limits assumed, chain 3 of 3): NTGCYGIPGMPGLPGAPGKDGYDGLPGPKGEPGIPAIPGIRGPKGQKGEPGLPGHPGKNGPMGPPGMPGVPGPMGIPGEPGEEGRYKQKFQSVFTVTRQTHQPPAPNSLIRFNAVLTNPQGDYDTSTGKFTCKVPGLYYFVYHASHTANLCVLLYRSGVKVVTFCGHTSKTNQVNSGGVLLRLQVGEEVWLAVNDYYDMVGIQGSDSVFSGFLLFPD

IC50 of block of the classical pathway (Weislab ELISA, IgM-coated wells, C5b-9 detection): ≤ 0.3 µg/mL
B1: FabA (Fab)
heavy: QVQLVQSGAELKKPGASVKVSCKSSGYHFTSYWMHWVKQAPGQGLEWIGVIHPNSGSINYNEKFESRVTITVDKSTSTAYMELSSLRSEDTAVYYCAGERDSTEVLPMDYWGQGTTVTVSSASTKGPSVFPLAPSSKSTSGGTAALGCLVKDYFPEPVTVSWNSGALTSGVHTFPAVLQSSGLYSLSSVVTVPSSSLGTQTYICNVNHKPSNTKVDKKVEPKSCDKTHT
light: DVQITQSPSSLSASLGERATINCRASKSINKYLAWYQQKPGKAPKLLIYSGSTLQSGIPARFSGSGSGTDFTLTISSLEPEDFAMYYCQQHNEYPLTFGQGTKLEIKRTVAAPSVFIFPPSDEQLKSGTASVVCLLNNFYPREAKVQWKVDNALQSGNSQESVTEQDSKDSTYSLSSTLTLSKADYEKHKVYACEVTHQGLSSPVTKSFNRGEC
